This is an account of results in the Immune Epitope Database (IEDB).

Among the targets are HLA-A*02:02; HLA-A*02:06; HLA-A*68:02; HLA-A*02:03; HLA-A*02:01.
Experiment in all cases: IEDB peptide-MHC binding, purified MHC/competitive/radioactivity; ≥ and ≤ were set here for values at or beyond the usual limits of such assays
Setting [1] is: source organism: Vaccinia virus WR.
Where [2] appears, read: source organism: Hepacivirus hominis.

Consider IVNSVLLFL, for which the IC50 with HLA-A*02:02 (source organism: SARS-CoV1) amounted to 7.1 nM; with HLA-A*02:06 (source organism: SARS-CoV1) it was 30 nM; in the test with HLA-A*68:02 (source organism: SARS-CoV1) it was 2090 nM; in the test with HLA-A*02:03 (source organism: SARS-CoV1), 179 nM; with HLA-A*02:01 (source organism: SARS-CoV1) it was 68 nM.

For IVNTTYDFL, the IC50 is 1880 nM with HLA-A*02:02 (setting [1]); 2990 nM in the test with HLA-A*02:06 (setting [1]); 750 nM with HLA-A*68:02 (setting [1]); 4680 nM with HLA-A*02:03 (setting [1]); 1050 nM with HLA-A*02:01 (setting [1]).

In the case of IVPEFAKQYV, the IC50 in the test with HLA-A*02:02 (setting [1]) was determined as 10 nM; in the test with HLA-A*02:06 (setting [1]), 15 nM; with HLA-A*68:02 (setting [1]), 3.5 nM; with HLA-A*02:03 (setting [1]) it was 18 nM; with HLA-A*02:01 (setting [1]) it was 5 nM.

IVSKCIVQSV: the IC50 with HLA-A*02:02 (setting [1]) was 123 nM; in the test with HLA-A*02:06 (setting [1]) it was 552 nM; in the test with HLA-A*68:02 (setting [1]), 50 nM; with HLA-A*02:03 (setting [1]), 31 nM; in the test with HLA-A*02:01 (setting [1]), 612 nM.

For IVTFINDYA, the IC50 with HLA-A*02:02 (setting [1]) is 140 nM; in the test with HLA-A*02:06 (setting [1]), 1150 nM; with HLA-A*68:02 (setting [1]), 84 nM; in the test with HLA-A*02:03 (setting [1]) it was 2960 nM; with HLA-A*02:01 (setting [1]), 4320 nM.

Regarding IVVALSSLV, the IC50 in the test with HLA-A*02:02 (setting [1]) came out at 27 nM; with HLA-A*02:06 (setting [1]), 8.2 nM; with HLA-A*68:02 (setting [1]), 5.4 nM; with HLA-A*02:03 (setting [1]), 3.9 nM; in the test with HLA-A*02:01 (setting [1]) it was 108 nM.

For IVVPVIDRL, the IC50 amounted to 144 nM with HLA-A*02:02 (setting [1]); 31 nM with HLA-A*02:06 (setting [1]); 35 nM in the test with HLA-A*68:02 (setting [1]); 226 nM in the test with HLA-A*02:03 (setting [1]); 241 nM with HLA-A*02:01 (setting [1]).

As to IVYGRSNAI, the IC50 in the test with HLA-A*02:02 (setting [1]) was 15 nM; with HLA-A*02:06 (setting [1]) it was 30 nM; with HLA-A*68:02 (setting [1]), 6.1 nM; with HLA-A*02:03 (setting [1]), 16 nM; with HLA-A*02:01 (setting [1]), 228 nM.

Turning to IVYGRSNAIL, the IC50 worked out at 92 nM in the test with HLA-A*02:02 (setting [1]); 424 nM with HLA-A*02:06 (setting [1]); 642 nM in the test with HLA-A*68:02 (setting [1]); 33 nM with HLA-A*02:03 (setting [1]); 724 nM in the test with HLA-A*02:01 (setting [1]).

As for KAKQLCYCPA, the IC50 is 308 nM with HLA-A*02:02 (setting [1]); 339 nM in the test with HLA-A*02:06 (setting [1]); 2460 nM with HLA-A*68:02 (setting [1]); 188 nM with HLA-A*02:03 (setting [1]); 1500 nM in the test with HLA-A*02:01 (setting [1]).

On to KASTISWMM, for which the IC50 in the test with HLA-A*02:02 (setting [1]) turned out to be 429 nM; in the test with HLA-A*02:06 (setting [1]), 797 nM; with HLA-A*68:02 (setting [1]), 2940 nM; with HLA-A*02:03 (setting [1]) it was 556 nM; with HLA-A*02:01 (setting [1]) it was 1410 nM.

Consider KIEDLINQLV, for which the IC50 with HLA-A*02:02 (setting [1]) came out at 87 nM; with HLA-A*02:06 (setting [1]), 145 nM; with HLA-A*68:02 (setting [1]), 1050 nM; with HLA-A*02:03 (setting [1]), 71 nM; in the test with HLA-A*02:01 (setting [1]), 286 nM.

As to KIILFLTLI, the IC50 with HLA-A*02:02 (source organism: SARS-CoV1) was 68 nM; in the test with HLA-A*02:06 (source organism: SARS-CoV1), 24 nM; with HLA-A*68:02 (source organism: SARS-CoV1) it was 378 nM; with HLA-A*02:03 (source organism: SARS-CoV1) it was 4.9 nM; in the test with HLA-A*02:01 (source organism: SARS-CoV1), 141 nM.

For the sequence KIMEIVSHL, the IC50 was determined as 79 nM with HLA-A*02:02 (setting [1]); 30 nM with HLA-A*02:06 (setting [1]); 1070 nM in the test with HLA-A*68:02 (setting [1]); 10 nM with HLA-A*02:03 (setting [1]); 76 nM with HLA-A*02:01 (setting [1]).

For KIYTLIYRQL, the IC50 stood at 707 nM with HLA-A*02:02 (setting [1]); 912 nM with HLA-A*02:06 (setting [1]); 4670 nM with HLA-A*68:02 (setting [1]); 1030 nM in the test with HLA-A*02:03 (setting [1]); 4020 nM with HLA-A*02:01 (setting [1]).

For the sequence KLFTHDIML, the IC50 with HLA-A*02:02 (setting [1]) was found to be 1 nM; in the test with HLA-A*02:06 (setting [1]) it was 4.7 nM; with HLA-A*68:02 (setting [1]), 769 nM; with HLA-A*02:03 (setting [1]), 3 nM; with HLA-A*02:01 (setting [1]) it was 1.4 nM.

For KLIEYSDFA, the IC50 with HLA-A*02:02 (source organism: SARS-CoV1) amounted to 0.095 nM; with HLA-A*02:06 (source organism: SARS-CoV1), 0.71 nM; with HLA-A*68:02 (source organism: SARS-CoV1), 10 nM; with HLA-A*02:03 (source organism: SARS-CoV1) it was 0.53 nM; with HLA-A*02:01 (source organism: SARS-CoV1), 0.54 nM.

Turning to KLLIAILGPL, the IC50 with HLA-A*02:02 (setting [2]) came out at 12 nM; with HLA-A*02:06 (setting [2]), 12 nM; with HLA-A*68:02 (setting [2]), 4230 nM; with HLA-A*02:03 (setting [2]), 5.9 nM; in the test with HLA-A*02:01 (setting [2]), 67 nM.

Consider KLLYAAEMV, for which the concentration for half-maximal inhibition (IC50) was found to be 58 nM with HLA-A*02:02 (setting [1]); 18 nM with HLA-A*02:06 (setting [1]); 2810 nM with HLA-A*68:02 (setting [1]); 54 nM in the test with HLA-A*02:03 (setting [1]); 48 nM with HLA-A*02:01 (setting [1]).

As to KLMGHFSWWT, the IC50 with HLA-A*02:02 (source organism: SARS-CoV1) worked out at 64 nM; with HLA-A*02:06 (source organism: SARS-CoV1) it was 99 nM; in the test with HLA-A*68:02 (source organism: SARS-CoV1), 2080 nM; with HLA-A*02:03 (source organism: SARS-CoV1) it was 213 nM; with HLA-A*02:01 (source organism: SARS-CoV1), 6.4 nM.

For KLPTLFGRGV, the IC50 in the test with HLA-A*02:02 (setting [1]) was determined as 190 nM; with HLA-A*02:06 (setting [1]), 53 nM; in the test with HLA-A*68:02 (setting [1]), 509 nM; in the test with HLA-A*02:03 (setting [1]), 33 nM; in the test with HLA-A*02:01 (setting [1]), 273 nM.

Take KLYGYASLTT: the IC50 with HLA-A*02:02 (setting [1]) was 1.9 nM; in the test with HLA-A*02:06 (setting [1]), 34 nM; in the test with HLA-A*68:02 (setting [1]), 1740 nM; with HLA-A*02:03 (setting [1]) it was 0.26 nM; with HLA-A*02:01 (setting [1]), 19 nM.

As to KMAVEVGSI, the IC50 was 31 nM with HLA-A*02:02 (setting [1]); 119 nM with HLA-A*02:06 (setting [1]); 806 nM in the test with HLA-A*68:02 (setting [1]); 2.8 nM with HLA-A*02:03 (setting [1]); 155 nM with HLA-A*02:01 (setting [1]).

As a reminder, the IC50 is the concentration that inhibits the measured activity by half.
